Source: US20090143311A1 (published 2009)

Experiments:
[1] = target: angiotensin I converting enzyme (ACE); experiment: cell-based or functional assay
[2] = target: angiotensin I converting enzyme (ACE); experiment: cell-based or functional assay; remark: listed apart in the source

| Binder | IC50 value in µM, Modified Matsui assay (ACE inhibition, cleavage of Hip-His-Leu) [1] | IC50 value in µM, at-line ACE assay (ACE inhibition, cleavage of hippuryl-His-Leu) [1] | IC50 value in the Modified Matsui test (ACE inhibition) [2] |
| --- | --- | --- | --- |
| MAP [tripeptide Methionine-Alanine-Proline (Met-Ala-Pro)] | 0.4 µM | 3.8 µM | 0.5 µM |
| ITP [tripeptide Isoleucine-Threonine-Proline (Ile-Thr-Pro)] | 10 µM | 50 µM | – |
| IPP [tripeptide IPP] | 2 µM | 7.1 µM | – |
